Assays:
HeLa Kyoto [1] = assay: solubility in G1/S (NP-40 vs SDS abundance) (log2 ratio); higher = more soluble; conditions: cell cycle stage: G1/S
HeLa Kyoto [2] = assay: thermal stability score vs G1/S (z-score of summed log2 fold changes over temperatures); higher = more thermally stable than in G1/S
HeLa Kyoto [3] = assay: melting temperature (median over replicates), in situ; higher = more thermally stable
HeLa Kyoto [4] = assay: solubility change mitosis vs G1/S (difference of NP-40 vs SDS log2 ratios) (log2 ratio difference); higher = more soluble in mitosis
[5] = cell cycle stage: early G1 (4.5 h after nocodazole release)
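Throughout, for melting temperature (median over replicates), in situ: HeLa Kyoto cells synchronized by double thymidine or nocodazole block, proteins quantified by TMT10plex mass spectrometry, three independent biological replicates.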
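Throughout, for solubility change mitosis vs G1/S (difference of NP-40 vs SDS log2 ratios): synchronized HeLa Kyoto cells (double thymidine block for G1/S, nocodazole release for mitosis), protein amounts in NP-40 versus SDS lysates quantified by mass spectrometry, three biological replicates.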
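Throughout, for solubility in G1/S (NP-40 vs SDS abundance): HeLa Kyoto cells arrested at G1/S by double thymidine block, proteins quantified by TMT10plex mass spectrometry in mild NP-40 versus SDS extracts, three biological replicates.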
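Throughout, for thermal stability score vs G1/S (z-score of summed log2 fold changes over temperatures): synchronized HeLa Kyoto cells, proteins quantified by TMT10plex mass spectrometry, three biological replicates, mitosis taken 0.5 h after nocodazole release, G1/S directly after double thymidine block.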

MRPFFLLCFALPGLLHAQQACSRGACYPPVGDLLVGRTRFLRASSTCGLTKPETYCTQYGEWQMKCCKCDSRQPHNYYSHRVENVASSSGPMRWWQSQNDVNPVSLQLDLDRRFQLQEVMMEFQGPMPAGMLIERSSDFGKTWRVYQYLAADCTSTFPRVRQGRPQSWQDVRCQSLPQRPNARLNGGKVQLNLMDLVSGIPATQSQKIQEVGEITNLRVNFTRLAPVPQRGYHPPSAYYAVSQLRLQGSCFCHGHADRCAPKPGASAGPSTAVQVHDVCVCQHNTAGPNCERCAPFYNNRPWRPAEGQDAHECQRCDCNGHSETCHFDPAVFAASQGAYGGVCDNCRDHTEGKNCERCQLHYFRNRRPGASIQETCISCECDPDGAVPGAPCDPVTGQCVCKEHVQGERCDLCKPGFTGLTYANPQGCHRCDCNILGSRRDMPCDEESGRCLCLPNVVGPKCDQCAPYHWKLASGQGCEPCACDPHNSLSPQCNQFTGQCPCREGFGGLMCSAAAIRQCPDRTYGDVATGCRACDCDFRGTEGPGCDKASGRCLCRPGLTGPRCDQCQRGYCNRYPVCVACHPCFQTYDADLREQALRFGRLRNATASLWSGPGLEDRGLASRILDAKSKIEQIRAVLSSPAVTEQEVAQVASAILSLRRTLQGLQLDLPLEEETLSLPRDLESLDRSFNGLLTMYQRKREQFEKISSADPSGAFRMLSTAYEQSAQAAQQVSDSSRLLDQLRDSRREAERLVRQAGGGGGTGSPKLVALRLEMSSLPDLTPTFNKLCGNSRQMACTPISCPGELCPQDNGTACGSRCRGVLPRAGGAFLMAGQVAEQLRGFNAQLQRTRQMIRAAEESASQIQSSAQRLETQVSASRSQMEEDVRRTRLLIQQVRDFLTDPDTDAATIQEVSEAVLALWLPTDSATVLQKMNEIQAIAARLPNVDLVLSQTKQDIARARRLQAEAEEARSRAHAVEGQVEDVVGNLRQGTVALQEAQDTMQGTSRSLRLIQDRVAEVQQVLRPAEKLVTSMTKQLGDFWTRMEELRHQARQQGAEAVQAQQLAEGASEQALSAQEGFERIKQKYAELKDRLGQSSMLGEQGARIQSVKTEAEELFGETMEMMDRMKDMELELLRGSQAIMLRSADLTGLEKRVEQIRDHINGRVLYYATCK [LAMB3]
solubility in G1/S (log2) (HeLa Kyoto [1]): 0.117
thermal stability score (HeLa Kyoto [2]; [5]): -0.552
thermal stability score (HeLa Kyoto [2]; cell cycle stage: mitosis): 1.4
melting temperature (HeLa Kyoto [3]; cell cycle stage: G1/S): 53.8 °C
melting temperature (HeLa Kyoto [3]; cell cycle stage: mitosis): 53.6 °C
solubility change mitosis (log2) (HeLa Kyoto [4]): -0.12

MAASTGYVRLWGAARCWVLRRPMLAAAGGRVPTAAGAWLLRGQRTCDASPPWALWGRGPAIGGQWRGFWEASSRGGGAFSGGEDASEGGAEEGAGGAGGSAGAGEGPVITALTPMTIPDVFPHLPLIAITRNPVFPRFIKIIEVKNKKLVELLRRKVRLAQPYVGVFLKRDDSNESDVVESLDEIYHTGTFAQIHEMQDLGDKLRMIVMGHRRVHISRQLEVEPEEPEAENKHKPRRKSKRGKKEAEDELSARHPAELAMEPTPELPAEVLMVEVENVVHEDFQVTEEVKALTAEIVKTIRDIIALNPLYRESVLQMMQAGQRVVDNPIYLSDMGAALTGAESHELQDVLEETNIPKRLYKALSLLKKEFELSKLQQRLGREVEEKIKQTHRKYLLQEQLKIIKKELGLEKDDKDAIEEKFRERLKELVVPKHVMDVVDEELSKLGLLDNHSSEFNVTRNYLDWLTSIPWGKYSNENLDLARAQAVLEEDHYGMEDVKKRILEFIAVSQLRGSTQGKILCFYGPPGVGKTSIARSIARALNREYFRFSVGGMTDVAEIKGHRRTYVGAMPGKIIQCLKKTKTENPLILIDEVDKIGRGYQGDPSSALLELLDPEQNANFLDHYLDVPVDLSKVLFICTANVTDTIPEPLRDRMEMINVSGYVAQEKLAIAERYLVPQARALCGLDESKAKLSSDVLTLLIKQYCRESGVRNLQKQVEKVLRKSAYKIVSGEAESVEVTPENLQDFVGKPVFTVERMYDVTPPGVVMGLAWTAMGGSTLFVETSLRRPQDKDAKGDKDGSLEVTGQLGEVMKESARIAYTFARAFLMQHAPANDYLVTSHIHLHVPEGATPKDGPSAGCTIVTALLSLAMGRPVRQNLAMTGEVSLTGKILPVGGIKEKTIAAKRAGVTCIVLPAENKKDFYDLAAFITEGLEVHFVEHYREIFDIAFPDEQAEALAVER [LONP1]
solubility in G1/S (log2) (HeLa Kyoto [1]): 0.12
thermal stability score (HeLa Kyoto [2]; [5]): -0.58
thermal stability score (HeLa Kyoto [2]; cell cycle stage: mitosis): -1.35
melting temperature (HeLa Kyoto [3]; cell cycle stage: G1/S): 54.4 °C
melting temperature (HeLa Kyoto [3]; cell cycle stage: mitosis): 53.6 °C
solubility change mitosis (log2) (HeLa Kyoto [4]): -0.0806
